Source: the DeepSol protein solubility set

assay: soluble on expression in E. coli; label from the status in PepcDB or PDB records

| Sequence | soluble on expression in E. coli |
| --- | --- |
| MKAVINNTNPENTPPTRAIKRLERDVLRMGALVEQSFRLSHQALFARDLTAAEELPRLDKKIDRFYRQIESDCTSIITLQAPTAQDLRCLSAFMQLVRDLERIGDYAKDLAEIAIKIFPYPPHASLPEIALMSNNAQAMLATSLLALADLDEINGRRLKYLDDDVDHAYNQLYHTLAHQKDVPGVIEPILLLTLAIRCLERMADHATNIGQRVAYIVTGQR | not soluble |
| MKAVVPTGKIYLGSPFYSDAQRERAAKAKELLAKNPSIAHVFFPFDDGFTDPDEKNPEIGGIRSMVWRDATYQNDLTGISNATCGVFLYDMDQLDDGSAFEIGFMRAMHKPVILVPFTEHPEKEKKMNLMIAQGVTTIIDGNTEFEKLADYNFNECPSNPVRGYGIY | soluble |
| MKCKKCGRKAVANLKAYGIALCEKCYPEFYRNLVKRSIKRFRILRPEERVLIAISGGKDSSALAAVLKELDYDAELLYIDLGIGNYSEESERVVRELSSSLDLSLNVVRLRDYGFTVDDVARKMRRKTCSACGTAKRYIMNRFARENSFDVVATGHTAEDIASFYIKNVAGGTRVWAEKLMPRNEPFDEKIVTRAKPLFEVSEKENMLYVLVNDIPHTLMECPHAPNPEWKEIVYDIERRKPGFVKNFVRGLVRPAEEFEETKYCKICGEVSSGDVCAFCRLRERLS | not soluble |
| MKCVVCGRNEAVEHGMCSSCIYDNTNVENIGPVSLVFCPKCGSIRIGKKWYRDSYGNKLLPMLLDEVKCSDVNARISGDEKGIFFDEKNKQIILPVTIKRSNMKDKIQNVAIPYSVTYISCPTCNKITGSYFEATIQLRTVSTKYDNILESVLESIEAIVEKRKKEDAESFISKVEKKPEGIDIYLGKRTDGDVVSSFVLDHFFSSIIVTKTLAGVKDGKKFFRFTYSLRILDAKEGSLEHHHHHH | not soluble |
| MKDCSNGCSAECTGEGGSKEVVGTFKAKDLIVTPATILKEKPDPNNLVFGTVFTDHMLTVEWSSEFGWEKPHIKPLQNLSLHPGSSALHYAVELFEGLKAFRGVDNKIRLFQPNLNMDRMYRSAVRATLPVFDKEELLECIQQLVKLDQEWVPYSTSASLYIRPTFIGTEPSLGVKKPTKALLFVLLSPVGPYFSSGTFNPVSLWANPKYVRAWKGGTGDCKMGGNYGSSLFAQCEAVDNGCQQVLWLYGEDHQITEVGTMNLFLYWINEDGEEELATPPLDGIILPGVTRRCILDLAHQWGEFKVSERYLTMDDLTTALEGNRVREMFGSGTACVVCPVSDILYKGETIHIPTMENGPKLASRILSKLTDIQYGREERDWTIVLS | soluble |
| MKDEISNPDLGAIYTTKILGVLLENWPKQTYLCCSEVTGIDFDEESVFDSFSPQPYPKEWEVCRDLIVWLENEGFIRSEGSRGSSFGFFSVEITMSAMTALNQVPDPLDPESTRTLKDTLKDIAKSGSGKLADKIMDKAFFAFVTMLEKSAG | not soluble |
| MKDFVKGRKIYTRTYNKCDPSLVVVERAKRRLGETKYNPFYNNCEHFARYCKVGIPISDQVENYKSLVGNSGIDASDALLNNGKSIVDTTQNLMKTTLDKISNFWKNDNDDDDGFFEYYLEHHHHHH | not soluble |
| MKEQILEKLKTVKYPGFEKDIVSFNFVKDIKIQDDGVFIDIEIVSANPEVANEIRKNTIEALSSLALKNIELNIITPKIPEEKSNSRSGKNIAPQVKNFIMVSSGKGGVGKSTTTVNLAISMAKMGKRVGILDADIYGPNIPRMLGETKTQPEVVGQRLKPILTHGVYMMSMGVLIEEGQGLMWRGAMIMKAIEQLLADVIWPELDVLFLDMPPGTGDAQITSAQSIPIAAGVCVSTPQTVSLDDSKRALDMFNKLHIPIAGVIENMSGFLCPDNGKEYDIFGKGTAEDMAKAYKSEVLAQIPIEMIVREGGDEGKPVSFYHPESVSSKRYLMAAEKIWSFIEKINNEGGADNSAIQPVMNGKSACSHLEHHHHHH | soluble |
| MKERESVQDQSDPSETDSEELLQLDGKSISEWVSEIDAISKEVEAELVSRDIGCHLVQVLEAVNTVLFDLRGFKRTSITLDPENSYLHSVLNCRCSTAFLISVIYIEVCKRLNVPIVGSPVGEDFLIWPKTEYPEELFKATSGQSLFSIVNGRCVDDPGSMASDLTAKSLQDLDMATNRDIIGIALANLIRLHWRRASKSSHGLMLTSPLSQLNNISSSNFPLLRPQDLRLAIAAAERLLILQPHNWALRRDLGMMLYYDRQYGEAVQELSICMAFAPPEEEAVLEPFVERLHLLRLISSLKPLGSDRLTVP | soluble |
| MKFEILQQLNAERAARRPAIVVTDTATGAQRLVKAADIAADPLAAELGKQLRMGKSASIEIDGRKLFLNVYAPTAKLVIVGAVHISQALAPLARSLGYDVTVVDPRTAFASPERFPDVPLIAEWPDVALPPLNIDHYTAFVALTHDPKIDDPALLHAFARDCFYIGALGSKKTHAKRLERLKGQGASDADLGRIHAPIGLAIGAVSPSEIAVSIMAEITAALRLPASSKAAAA | not soluble |
| MKFIDEYRDPARARALLDRIRQVARHDWTIMEICGGQTHSILRNGIDQLLPPNVQLVHGPGCPVCVTPLETIERALAIAARPNTILTSFGDMLRVPGNSKDLFMARSEGADVRVVFSPLEALQIARDNPSKEVVFLGVGFETTAPANAMAVHQAAREGLTNFSELVSQVMVPPAMRAMLSSPGNRVQGFLAAGHVCAIMGYEEYEPVAAEFGVPIVPAGFEPVDLLDAILKTVELLEAGRSGVVNAYGRVVSREGNPEARRVMQEVFEVADRPWRGIGVIPASGLVLRPEYKRFDAEKRFDVGHIAPQESPLCRSGEVLQGHLKPSDCPAFGKECTPQTPFGATMVSSEGACAAYYRYHRNSNT | soluble |
| MKFKIHSDITYQVMSPTTFIFNVHALRTESQHILDESLIVTPPIEIEEFSYNSGTSRFVRLKATENTTFSMSYTATVDTQYKVIDQRQELETVPVVDLDGDIIPFLFPSRYCQSDKLQKLAYKEFGKIENVYSKVLAITDWIYNNVEYISGSTNSQTSAFDTITERAGVCRDFAHLGIALCRALSIPARYFTGYAFKLNPPDFHACFEAYIGGNWIIFDATRLVPLNGLVKIATGRDAADAAVASIFGNASSTNMHVECASLDTDFTPFWYDKNSLKGLSFQ | soluble |
| MKFKRLRTSENKLYYKAMELYKISFPFHEQRKSSLQEEILKNKEYQFNLIYDKNQFVGIILCWETDDFIYVEHFCIFPEMRNNRYGQRALELLNKKGKTIILEIDLPIDEISIYRKAFYERVKYKTNNYEHIHP | not soluble |
| MKFLPLLALLISPFVSALTLDDLQQRFTEQPVIRAHFDQTRTIKDLPQPLRSQGQMLIARDQGLLWDQTSPFPMQLLLDDKRMVQVINGQPPQIITAENNPQMFQFNHLLRALFQADRKVLEQNFRVEFADKGEGRWTLRLTPTTTPLDKIFNTIDLAGKTYLESIQLNDKQGDRTDIALTQHQLTPAQLTDDERQRFAAQ | not soluble |
| MKFLTVSDDMNFLRQVNTLVAGKGDMDSVIIGEGDAKGLGSKVLYRAKKGTPFDAVSEGILKIAGNYDYIAIGSTEVGREIAGYLSFKTGFYTATEIFSLEFNGQKAHTKRFFYGGKTVIEEESDARILTVAPGVIEAKDLGTTPEIRDLEIGQSRIKITKFVSKAGGSVRLEDAKVIVSVGRGIGSKENIAKIEPLAKALNGEIAGSRPVCMDYGWLSEDRQVGLSGKKVSPKVYIALGISGQIQHIAGMRNSKTVIAINKDKNAPIFQECDYGIVGDLFTVVPKILEQLKQ | not soluble |
| MKGAEALLRALEREGVEVIFGHPGGAIMPTYDALYDSPIRHILVRHEQGGVHAATAYARASGRVGVVMATSGPGALNLVTGLADAMMDSTPVVAITGNVPRALIGTDAFQEADVTGVTMPITKHNYLVQDVNEIPRVVKEAFHIAATGRPGPVLIDIPKDVQLAEFTGSFDVKLDLPGYKPTLKGHPKQIERALDALEKAERPVLMVGGGAQHAHAELLAFAEKTGLPVITTLMGLGAFPGNHPLWLGMPGMHGTVAANRAIHHADVILAIGLRFDDRVTGKVSRFAPHAHTIIHVDIDPAEIGKVVRTHIPIVGDSRLVLKELLKGAKALRLAAWWRELEEWRTRYPLRYRPKPHLQSQEVIRAFYEATGGHAIVTTGVGQHQMFAAQFFPVTRPRSFLTSGGLGTMGVGLPFAIGAKIARPEELVIDFDGDGSFQMTLQELATVVKYKLDVKVVILNNGYLGMVRQWQDLFHAKRYSEVYLADSNPDFARLAEAYGIKGVRVERKEDLMKGVEAVLNADGPVVAEFKVYQEEGVFPMIPAGGAAEDMILEPPEEKEEVGA | soluble |
| MKGGLLVDDEFIHGAARSLTVRKTSLFFAGDGFTVYDCKGSLVFRVDSYGGPNTRDTDEVVLMDAHGRCLLTLRRKRPSLRRRWEGYLGERSDGQKPIFGVRRSSIIGRNSVTVEVYGDYQCSEYLIEGSFGARNCTVVEAETRRKVAEIRRKVDASTNVMLGKDVFSLNVKPGFDGAFAMGLVLVLDQIYGDDLLEVGEEQVHPSAEDL | soluble |
| MKGLILAAGRGTRLRPLTHTRPKPAIRVAGRPIIHYAVENLLEAGVREIGVVVSPETERDLKVALEGYPVRYVLQEEPQGLAHAVDVARGFLGESPFVLYLGDNLFQKGIRRFLEAFKPGVSAVIALVRVEDPRQFGVAVLEGNRVVRLLEKPKDPPSDLAVAGVYVFSPEVLEVVRGLKPSARGEYEITDAIQGLIDRGKTVVGVEVEGWWKDTGRHQDLLDANRLLLEELTPKVEGDVVESQLTGRVVVEKGAKVVRSTVIGPAHIGAGAVVEEAFVGPFTSVGPRARVVRSEVEYSLLEEEAVVEEVRLRLQECILGVRAEVKSRDGLPRAHRLILGDLSQVELA | soluble |
| MKGMSKMPQFNLRWPGGGPQFNLRWPREVLDLVRKVAEENGRSVNSEIYQRVMESFKKEGRIGGTGGSGGGREVLDLVRKVAEENGRSVNSEIYQRVMESFKKEGRIGAHHHHHHKNQHE | soluble |
| MKGTQMLALNKKCWDIVAPYFFQVDCLPKYGPYTASEDEIHLFDSIKGKKVLDIGCGSGHSLQYMAEHGAEELWGLDLSSTQIETAHETLQSWNPKLICGAMEEERDIPKGYFDIVYSIYALGWTSDLRKTLELIYSYVKPGGSFIFSWEHPVYSNLMYGTEEIAFSSSYHEETPITFETFKGEDVQATLYKRKMSTYINELNRVGFTIERIEEPEPSSSFDEKLAEPSTKYYSLHKARMVPTTFIIKARKLEHHHHHH | soluble |
| MKGVVEGQCGQQNALVGLANTFGTSNQRVAPSNAAASLLPSSSMGEQMANEFLRQQARTMAPTSFSMKSMQNNLPQASASSSLAANWTKEFQPRQNQLASQWSQQYTSSAPSMESAWRQVQAPSMTSTSSHQPITDAGMWSSEYLDTVDTSLTKSSGTQNWADDFMEQQDNYGMENTWKDAQAFEQRWEEIKRDMEKDESLQSPENYVYQEANPFTTMSDPLMEGDNLMRNGDIGNAMLAYEAAVQKDPQDARAWCKLGLAHAENEKDQLAMQAFQKCLQIDAGNKEALLGLSVSQANEGMENEALHQLDKWMSSYLGSNSTQVTTTPPLYSSFLDSDTFNRVEARFLDAARQQGATPDPDLQNALGVLYNLNRNFARAVDSLKLAISKNPTDARLWNRLGATLANGDHTAEAISAYREALKLYPTYVRARYNLGISCMQLSSYDEALKHFLSALELQKGGNDASGIWTTMRSAAIRTSNVPDNLLRAVERRDLAAVKASLV | not soluble |
